Experiments:
[1] = biological target: full-length SARS-CoV-2 S protein expressed in HEK293T cells (SARS-CoV-2, Wuhan-Hu-1, UniProt P0DTC2); assay: flow cytometry on cells
[2] = biological target: variant of S6P_(ecto) protein containing a C-terminal Twin-Strep-tag (SARS-CoV-2, Wuhan-Hu-1 (assumed), UniProt P0DTC2, stabilised); assay: negative stain electron microscopy

Binder	binding result [1]	binding result [2]
CnC2t1p1_B10 (antibody, V domains shown) VH: QVQLVQSGAEVKKPGSSVKVSCKASGGTFSSYAISWVRQAPGQGLEWMGGIIPIFGTANYAQKFQGRVTITADKSTSTAYMELSSLRSEDTAVYYCARVSGYDSSGYWGDYWGQGTLVTVSS VL: EIVLTQSPATLSLSPGERATLSCRASQSVSSYLAWYQQKPGQAPRLLIYDASNRATGIPARFSGSGSGTDFTLTISSLEPEDFAVYYCQQRSNWPPALTFGGGTKVEIK	binds	
COV2-2002 (antibody, V domains shown) VH: EVQLVESGGGLVQPGGSLRLSCAASGFTFSFYWMSWVRQAPGKGLEWVANIKQDGSEKYYVDSVKGRSTISRDNAKNSLYLQMNSLRAEDTAVYYCARVGSSSWYFDYWGQGTLVTVSS VL: not shown	binds	
COV2-2333 (antibody, V domains shown) VH: EVQLVESGGGLVQPGGSLRLSCAASGFTFSIYWMSWVRQAPGKGLQWVANIKQDASEKYYVDSVKGRFTISRDNAKNSLYLQMNSLRAEDTAVYYCARLGGSSWHFDYWGQGTLVTVSS VL: SYELTQPPSVSVSPGQTASITCSGDKLGDKYSSWYQQKPGQSPVLVIYEDTKRPSGIPERFSGSNSGNTATLTISGTQAMDEADYYCQAWSSSTAVFGGGTKLTVL	binds	
COV2-2531 (antibody, V domains shown) VH: QVQLQESGPGLVKPSETLSLTCSVSGGSIRSYFWNWVRQPPGKGLEWIGYIYYSGSTNYKPSFKSRVTISLDTSKNQISLKLSSVTAADTAVYYCARATWLRDAFGIWGQGTMVTVSS VL: NFMLTQPHSVSESPGKTVTISCTGNSGSIASNYVQWYQQRPGSAPTTVIYEDSQRPSGVPDRFSGSIDSSSNSASLTISGLKTEDEADYYCQSFDSGNVVFGGGTKLTVL	binds	
COV2-2531 Fab (Fab, V domains shown) VH: QVQLQESGPGLVKPSETLSLTCSVSGGSIRSYFWNWVRQPPGKGLEWIGYIYYSGSTNYKPSFKSRVTISLDTSKNQISLKLSSVTAADTAVYYCARATWLRDAFGIWGQGTMVTVSS VL: NFMLTQPHSVSESPGKTVTISCTGNSGSIASNYVQWYQQRPGSAPTTVIYEDSQRPSGVPDRFSGSIDSSSNSASLTISGLKTEDEADYYCQSFDSGNVVFGGGTKLTVL		binds
C126 (antibody, V domains shown) VH: QVQLQESGPGLVKPSETLSLSCAVSGGSIGSYFWSWIRQPPGKGLEWIGYLHYSGSTNYNPSLKSRVTISVDTSKNQFSLKLSSVTAADTAVYYCARLQWLRGAFDIWGQGTMVTVSS VL: NFMLTQPHSVSESPGKTVTISCTGSSGSIASNYVQWYQQRPGSAPTTVINEDNQRPSGVPDRFSGSIDSSSNSASLTISGLKTEDEADYYCQSYDSSNLVFGGGTKLTVL	binds	
C126 Fab (Fab, V domains shown) VH: QVQLQESGPGLVKPSETLSLSCAVSGGSIGSYFWSWIRQPPGKGLEWIGYLHYSGSTNYNPSLKSRVTISVDTSKNQFSLKLSSVTAADTAVYYCARLQWLRGAFDIWGQGTMVTVSS VL: NFMLTQPHSVSESPGKTVTISCTGSSGSIASNYVQWYQQRPGSAPTTVINEDNQRPSGVPDRFSGSIDSSSNSASLTISGLKTEDEADYYCQSYDSSNLVFGGGTKLTVL		binds

— publication PMC8352653 (Cell Reports, 2021)
